These results are taken from patent US12018327B2, “Methods and compositions relating to epoxide hydrolase genes” (The Regents of the University of California, priority 2018, dated 2024).

One series has as its target T1, PPARγ (Homo sapiens, UniProt P37231).
T1 sequence (P37231 1-505): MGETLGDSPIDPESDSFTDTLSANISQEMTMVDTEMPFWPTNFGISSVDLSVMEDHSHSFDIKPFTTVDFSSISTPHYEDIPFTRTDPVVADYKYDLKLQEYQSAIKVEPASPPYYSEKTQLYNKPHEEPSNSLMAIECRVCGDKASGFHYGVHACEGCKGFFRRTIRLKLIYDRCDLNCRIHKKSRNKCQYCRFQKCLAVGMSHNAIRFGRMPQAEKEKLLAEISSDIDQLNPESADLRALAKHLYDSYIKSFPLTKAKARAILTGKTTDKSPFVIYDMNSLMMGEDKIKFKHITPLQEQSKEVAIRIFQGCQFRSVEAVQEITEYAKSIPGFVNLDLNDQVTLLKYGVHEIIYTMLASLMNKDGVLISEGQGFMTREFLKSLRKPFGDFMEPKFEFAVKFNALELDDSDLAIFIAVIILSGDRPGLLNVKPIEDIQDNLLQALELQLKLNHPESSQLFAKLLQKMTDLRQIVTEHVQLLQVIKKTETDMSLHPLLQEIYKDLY
To be noted: ref [19]; cited from earlier work.

A short description of series [1]: Colorimetric detection of EH activity, 12,13 EpOME. The format is biochemical. To be noted: gene expressed in E. coli BL21.

In the case of `CCCCC/C=C\CC(O)C(O)CCCCCCCC(=O)O` (stereo not shown) [9,10 DiHOME], at PPARγ, the “action on PPARγ” value was “known agonist”.

B1: YP_003971333: Bifidobacterium bifidum PRL2010 hydrolase (epoxide hydrolase) encoded by Gene 3, expressed in E. coli (protein)
chain: MASDDIMTAGAGGATATVRADIKAAFFDIDGTLTSFVTHVIPQSSIDALHELQDRGVKVFICSGRAPSHMTVVLDMMPVHFDGIIALNGQYCFDDHGLLEKESLLPEDIVTITRWLDEHPDVVANYCEKDYVYFNQITDAMRATWRQLGKTAPTVNIDDPHERALKHETFQISPYISFEDEAKLSGMCRNVRGVRWHPDFTDLIPADGGKPEGMKRFMRHYGWTREQTIAFGDGGNDADMLAFAGIGVAMGNATEPAKAAADYITDDVDHDGIMNALKHFNVL
Consider B1, for which, in series [1], the “conversion of 12,13 EpOME into 12,13 DiHOME” value (“conversion” below) is given as “could convert”.

B2: NP_814872: Enterococcus faecalis epoxide hydrolase (HAD superfamily hydrolase) encoded by Gene 1, expressed in E. coli (protein)
chain: MSIKLVAIDIDGTLLNSQHKITPRVKEALQKANEQGVRIVLCTGRPLPGVKEQLDELALYGENDFVITYNGSLVQATKDNTIISRYTLSYEDFLEIEMYSRKVGAHLHTIDDSAIYTANRNIGKYTIHEASLVNMPLKYRTVDEMTPEMNIIKMMMIDEPEVLDPAIAKLPLHFTEKYTTVKSTPFYYEIMNKNASKGNALAKLADHLGLNKDEVMAIGDNENDLSMIDYAGIGVAMGNATENVKTIADVHTTSNDEDGVAQIIEKMVLI
For B2, in series [1], the “conversion” value was “could convert”.

B3: YP_003971091: Bifidobacterium bifidum PRL2010 hydrolase (epoxide hydrolase) encoded by Gene 2, expressed in E. coli (protein)
chain: MSQHQVTTRQRRNVVLLDLDGTLTQSDPGIIACATKAFEELSLPVPDDQEMHRFIGPAIIESFRRNHMPDELLDRGVEIYREYYADKAVFDDPNNPGHKIPGRLYNSVYAGIPEQLAALRADGLHLAIATCKPQYQAEPVCEHFHLDTMVDGIYGASTDNSRIDKDQVIRYCFDSIGFDADAGDRALMVGDRWTDVDGAIACGLDCLGCRWGYAEAGELEEHGAYRIIDTVDELAAAVNDYFAK
Consider B3, for which the “conversion” value in series [1] is recorded as “could convert”.
